Source: US10543282B2, “Targeted peptide conjugates” (Marker Gene Technologies, Inc., priority 2014, dated 2020)
Non-standard residues stand in square brackets, D forms with d. Residues, ends and D or L forms follow the SMILES beside them. ξ: configuration not given here. *: point of attachment. X2 = Cn1cc(C2=C(c3ccc(NC(=O)CCCN4C(=O)CC(*)C4=O)cc3)C(=O)NC2=O)c2ccccc21; X1 = O=C(CCCN1C(=O)CC(*)C1=O)Nc1c(Br)cc(Br)cc1CN[C@H]1CC[C@H](O)CC1; ξC = NC(CS)C(=O)O; ξA = CC(N)C(=O)O

Tests used:
[1] = tested on: lysosomal GCase in immortalized B-Lymphoblast cells derived from a Gaucher I patient (GM10870); assay: Lysosomal GCase activity by flow cytometry with LysoLive fluorogenic GCase substrate; format: cell-based, human; settings: 48 hours; for lysosomal GCase activity, Ambroxol and its targeted derivative: multiple concentrations, FIG. 15; for lysosomal GCase activity compared to native drug SB216763: 1.0-5.0 uM, FIG. 14
Experimental: Immortalized B-Lymphoblast cells derived from a Gaucher I patient (GM10870, CCR) were incubated overnight in a CO2 incubator at 37° C./5% CO2. Equal numbers of cells (50,000 cells/well) were transferred to individual wells of 96-well tissue culture plates and treated with the native drug NSC 95397 or the organelle targeted NSC 95397 derivatives (M2770, M2771) at multiple concentrations (0.5-10 uM) and incubated at 37° C./5% CO2 for 48 hours. A lysosomal-targeted fluorogenic GCase substrate (MarkerGene™ LysoLive™ Lysosomal β-Glucosidase Assay Kit, Product M2775) was then added to the wells according to the manufacturer's instructions to a final concentration of 5 uM and cells were incubated a further 16 hours. DRAQ7 (dead-cell stain) was then added to the cells to a final concentration of 3 uM and cells immediately analyzed using a BD Accuri C6 flow cytometer, capturing 10000 live cell events and the median fluorescence of the stained cell populations graphed as shown in FIG. 13.
Immortalized B-Lymphoblast cells derived from a Gaucher I patient (GM10870, CCR) were incubated overnight in a CO2 incubator at 37° C./5% CO2. Equal numbers of cells (50,000 cells/well) were transferred to individual wells of 96-well tissue culture plates and treated with native drug SB216763 or the organelle targeted SB216763 derivatives (M2747, M2748) at multiple concentrations (1.0-5.0 uM) and incubated at 37° C./5% CO2 for 48 hours. A lysosomal-targeted fluorogenic GCase substrate (MarkerGene™ LysoLive™ Lysosomal β-Glucosidase Assay Kit, Product M2775) was then added to the wells according to the manufacturer's instructions to a final concentration of 5 uM and cells were incubated a further 16 hours. DRAQ7 (dead-cell stain) was then added to the cells to a final concentration of 3 uM and all cell wells immediately analyzed using a BD Accuri C6 flow cytometer, capturing 10000 live cell events and the median fluorescence of the stained cell populations graphed as shown in FIG. 14.
Immortalized B-lymphoblast cells derived from a Gaucher I patient leukocytes (GM10870, CCR) were incubated overnight in a CO2 incubator at 37° C./5% CO2. Equal numbers of cells (50,000 cells/well) were transferred to individual wells of 96-well tissue culture plates and treated with the native drug Ambroxol or the organelle-targeted Ambroxol derivative (M2781) at the multiple concentrations shown and incubated at 37° C./5% CO2 for 48 hours. Following drug treatment, a lysosomal-targeted fluorogenic GCase substrate (MarkerGene™ LysoLive™ Lysosomal β-Glucosidase Assay Kit, Product M2775) was then added to the wells according to the manufacturer's instructions to a final concentration of 5 uM and cells were incubated a further 16 hours. DRAQ7 (dead-cell stain) was then added to the cells to a final concentration of 3 uM and cells immediately analyzed using a BD Accuri C6 flow cytometer, capturing 10000 live cell events and the median fluorescence of the stained cell populations graphed as shown in FIG. 15.

[2] = tested on: Glc-Cer and allied glycolipids in Gaucher patient cells; assay: TLC analysis of the clearance of excess glycolipids after TPC treatment; format: cell-based, human; settings: 10 uM final concentration, 3 days, FIG. 9
Experimental: A series of targeted pharmacological chaperone derivatives were compared for their abilities to affect glycolipid biosynthesis by 1D-TLC.
Primary Human Fibroblasts from Gaucher I (F0361999) patients were obtained from Istituto Giannina Gaslini (Genova, Italy). Primary Human Fibroblasts from a healthy donor (AG06173) and Gaucher I (GM00372A) patients were obtained from the Coriell Institute for Medical Research (Camden, N.J.). Cells were cultured in Minimum Essential Medium Eagle supplemented with 10% FCS.
Immortalized B-lymphocytes from healthy donor (GM14643), Gaucher I (GM10870, GM10874), and Gaucher II (GM08752) patients were obtained from the Coriell Institute for Medical Research.
Cell labeling solutions were prepared by diluting substrate stock solutions in the appropriate medium for the cell line (see above) without serum. TPC treatment solutions were prepared by diluting stock solutions in complete media appropriate for the cell line. Cells were treated with either the targeted pharmacological chaperones (10 uM final concentration), miglustat (10 uM) or no drug (control) for 3 days prior to all analyses. For lipid analyses cells were counted on a TC-10 Automated Cell Counter (Bio-Rad, Hercules, Calif.) harvested by centrifugation (800×g, 5 min.) and subjected to one PBS wash (1 mL per sample) and centrifugation as above. […]

| Compound | lysosomal GCase activity, Ambroxol and its targeted derivative [1] | lysosomal GCase activity compared to native drug SB216763 [1] | other results |
| --- | --- | --- | --- |
| Nc1c(Br)cc(Br)cc1CNC1CCC(O)CC1 (stereo not drawn) [Ambroxol, 4-(((2-Amino-3,5-dibromophenyl)methyl)amino)cyclohexanol, reference compound] | slightly inhibitory toward lysosomal GCase activity | – | – |
| CC(=O)NC(CSC1CC(=O)N(CCCC(=O)Nc2ccc(C3=C(c4cn(C)c5ccccc45)C(=O)NC3=O)cc2)C1=O)C(=O)NC(Cc1ccccc1)C(=O)NC(Cc1ccccc1)C(=O)NC(CCCCN)C(=O)NC(CC(=O)O)C(=O)NC(CCC(=O)O)C(=O)NC(CC(C)C)C(=O)O (stereo not drawn) [M2747] (Ac-C(X2)FFKDEL-OH; configuration not given here) | – | increased lysosomal GCase activity in lysosomes compared to the native drug | – |
| CC(C)CC(NC(=O)C(CCCNC(=N)N)NC(=O)C(CCC(N)=O)NC(=O)C(Cc1ccc(O)cc1)NC(=O)C(CC(=O)O)NC(=O)C(CO)NC(=O)C(C)NC(=O)CN)C(=O)NCC(=O)NC(CSC1CC(=O)N(CCCC(=O)Nc2ccc(C3=C(c4cn(C)c5ccccc45)C(=O)NC3=O)cc2)C1=O)C(=O)O (stereo not drawn) [M2748] (H-GASDYQRLGC(X2)-OH; configuration not given here) | – | increased lysosomal GCase activity in lysosomes compared to the native drug | – |
| CC(=O)NC(CSC1CC(=O)N(CCCC(=O)Nc2ccc(C3=C(c4cn(C)c5ccccc45)C(=O)NC3=O)cc2)C1=O)C(=O)NCC(=O)NCC(=O)NCC(=O)NCC(=O)NCC(=O)NC(C)C(=O)O (stereo not drawn) [M2749] (Ac-C(X2)GGGGGA-OH; configuration not given here) | – | equivalent or reduced lysosomal staining/drug efficacy than native drug | – |
| CC(=O)NC(CSC1CC(=O)N(CCCC(=O)Nc2c(Br)cc(Br)cc2CN[C@H]2CC[C@H](O)CC2)C1=O)C(=O)NCC(=O)NCC(=O)NCC(=O)NCC(=O)NCC(=O)NC(C)C(=O)O (stereo partly drawn) [M2781] (Ac-[ξC](X1)GGGGG[ξA]-OH) | increased lysosomal GCase activity | – | – |
| CCCCN1C[C@H](O)[C@@H](O)[C@H](O)[C@H]1CO [miglustat, N-butyl-deoxynojirimycin] | – | – | effect on glycolipid biosynthesis / clearance of excess glycolipids (Glc-Cer and allied glycolipids), 1D-TLC [2]: moderate effect |
